Test results: patent publication US9555076B2, “Neuregulin based methods and compositions for treating cardiovascular diseases” (Zensun (Shanghai) Science & Technology, Co., Ltd., priority 2002, dated 2017)
Several values for one entry are separate records, joined by “and”; a condition that tells them apart may be missing. Equal values may be shown once.

Experiments:
Rhesus = experiment: Serum antibody detection (ELISA) in long-term toxicity study; assay type: in vivo; conditions: 7.5, 15, 75 μg/kg/d iv, 1, 2, 3-week and end of convalescent period
Procedure: Sealing: Wash the plate 5 times, prepare 5% evaporated skimmed milk with cleaning solution.
Dilute the scheduled for testing serum; dilute the sample with sample dilution solution, dilute gradient is 1:100.
Add sample: Wash the sealed enzyme labeled plate for 3 times, add scheduled for testing serum, 100 μl/hole, 37° C. for 1 hour.
Add enzyme labeled antibody: Wash the plate 5 times, add 1:1000 diluted HRP labeled rat anti-monkey immunoglobulin, […], 37° C. for 1 hour.
Substrate: Wash the plate 5 times, add newly prepared substrate operating fluid, 100 μl/hole, 37° C. for 10 minutes.
Ending: add 2N H2SO4, 50 μl/hole to end the reaction.
Odd value detection: Positive result was defined as OD value of testing sample was 2.1 time greater than that of the negative control (serum was 1:100 diluted).

[1] = tested on: heart failure in rat caused by ligation of coronary artery; experiment: Plasma renin-angiotensin-aldosterone radioimmunoassay; assay type: in vivo, SD rat
Procedure: Carotid artery phlebotomy was carried out and plasma extracted according to the mandate of the reagent kit, frozen and stored at −20° C. Renin activity (PRA), angiotensin I (AI), angiotensin II (AII) and aldosterone (ALD) content were determined with immunoassay.

[2] = tested on: toxic myocarditis caused by Adriamycin in rat; experiment: Myocardial pathologic scoring, Adriamycin rat model; assay type: in vivo, SD rat; conditions: Adriamycin model
Procedure: Heart was extirpated after thoracotomy (auricle should be reserved), the heart weight was measured after dried with absorbent paper, ratio of heart weight/body weight calculated; outer diameter of the heart was measured at ½ site of the vertically standing heart; medium part of the left ventricle was crosswise cut open, maximal thickness of free wall of the left ventricle measured; the heart was fixed with 10% formaldehyde, paraffin embedded and HE stained, observation of the myocardial structure carried out under optic microscope, give out pathologic score.
Scoring could be performed between grade 1 and grade 2 or between grade 2 and grade 3, e.g. grade 1.5, grade 2.5 etc. 6.3.3.3 Determination of Hemodynamics Index

[3] = tested on: toxic myocarditis caused by Adriamycin in rat; experiment: Survival rate, Adriamycin caused toxic myocarditis rat model; assay type: in vivo, SD rat
Procedure: rhNRG-1β was injected into the tail vein within 24 hours after the first injection of Adriamycin, the injection of rhNRG-1 β was carried out once daily for 10 days. Dosage was adjusted according to the body weight, volume of the drug administered was 0.2 ml/100 g.
Based on the <<Guidance Principle of New Drug Preclinical Experiment>>, 3.3 mg/kg of Adriamycin was injected into the tail vein, once per week for consecutive 4 injections, establishing Adriamycin caused toxic myocarditis rat model.
rhNRG-1 β was injected into the tail vein within 24 hours after the first injection of Adriamycin. During the experiment, animal survival was dynamically monitored, heart function indexes (maximal rate of pressure increase within left ventricle, […], maximal rate of pressure decrease within left ventricle, −dp/dt, systolic end pressure of left ventricle LVPmax, diastolic end pressure of left ventricle LVPmin) were monitored at the 5th week. Section was made from the heart tissue and pathological changes examined.
Situation of survival was recorded weekly and the survival rate of the various experimental groups was calculated. Survival rate (%)=survival animal number/number of experimental animals×100.

[4] = tested on: acute myocardial injury caused by viral (Coxsackie B3) infection in mice; experiment: Myocardial pathologic score, mice infected with Coxsackie B3 virus; assay type: in vivo, BALB/C mice; parameters: key: 0-4 score: 0 = 0%, 1 = 25%, 2 = 50%, 3 = 75%, 4 = 100% lesion area
Procedure: The survived mice were killed through dislocating the cervical spine, aseptic thoracotomy was performed and the heart extirpated, heart weight measured and put the myocardium into formaldehyde for fixation, embedded in paraffin, consecutive section made and pathologic examination performed, observed inflammatory cells infiltration of the myocardium, degeneration and necrosis. Based on the Principle of New Drug Evaluation Guideline, pathologic scoring criteria was defined as follow: • Score 0: lesion area accounting for 0%; • Score 1: lesion area accounting for 25%; • Score 2: lesion area accounting for 50%; • Score 3: lesion area accounting for 75%; • Score 4: lesion area accounting for 100%; • Scoring could be performed between score 1 and score 2 or between score 2 and score 3, e.g. when lesion area was 80% was scored as score 3.2, 7.3.3.4 Observation On Survival Of Mice

[5] = tested on: toxic myocarditis caused by Adriamycin in rat; experiment: Serum troponin T (cTnT) level, Adriamycin rat model; assay type: in vivo, SD rat; conditions: Adriamycin model, (I)
Procedure: 2 ml of arterial blood was withdrawn, serum extracted, frozen and stored at −20° C., determination of serum cTnT content was performed with electrochemistry irradiate method submitted to be carried out by Clinical Laboratory of Zhong Shan Hospital.

[6] = dose not given (n = 6), iv qd × 10

B1: rhNRG-1 β: Recombinant human neuregulin fragment of 61 amino acid (SEQ ID NO:4), 3 disulfide bonds, expressed in E. coli (protein, listed as Homo sapiens)
chain: SHLVKCAEKEKTFCVNGGECFMVKDLSNPSRYLCKCPNEFTGDRCQNYVMASFYKAEELYQ
modifications: disulfide (positions not given here)
In the case of B1, the antibody testing (Rhesus) is reported as “negative results”, the AI ([1]; 5 μg/kg iv qd × 10) is reported as 10.036 ng/mL and the AII ([1]; 5 μg/kg iv qd × 10) is reported as 807.304 pg/mL. The ALD ([1]; 5 μg/kg iv qd × 10) was 1.472 ng/mL, the PRA ([1]; 5 μg/kg iv qd × 10) was 4.032 ng/ml · h and the AI ([1]; 10 μg/kg iv qd × 10) was 7.65 ± 1.40 ng/mL and 7.654 ng/mL. The AII ([1]; 10 μg/kg iv qd × 10) was 468.58 ± 165.10 pg/mL and 468.583 pg/mL, the ALD ([1]; 10 μg/kg iv qd × 10) was 1.26 ± 0.38 ng/mL and 1.264 ng/mL and the PRA ([1]; 10 μg/kg iv qd × 10) was 1.075±1.50 ng/ml · h and 1.075 ng/ml · h. The AI ([1]; 20 μg/kg iv qd × 10) was 7.40 ± 12.15 ng/mL and 7.400 ng/mL, the AII ([1]; 20 μg/kg iv qd × 10) was 641.47 ± 283.86 pg/mL and 641.47 pg/mL and the ALD ([1]; 20 μg/kg iv qd × 10) was 1.02 ± 0.27 ng/mL and 1.018 ng/mL. The PRA ([1]; 20 μg/kg iv qd × 10) was 1.337±1.09 ng/ml · h and 1.337 ng/ml · h, the AI [1, 6] was 10.655 ng/mL and the AII [1, 6] was 1366.38 pg/mL. It also gave an ALD [1, 6] of 1.738 ng/mL, a PRA [1, 6] of 3.506 ng/ml · h and a Pathologic scoring ([2]; 10 μg/kg iv qd × 10 d, (I)) of 1.83 ± 0.41. For the same molecule, the Pathologic scoring ([2]; 10 μg/kg iv qd × 10 d, (II)) was 2.167 ± 0.516, the Pathologic scoring ([2]; 20 μg/kg iv qd × 10 d, (I)) was 1.17 ± 0.93 and the Pathologic scoring ([2]; 20 μg/kg iv qd × 10 d, (II)) was 1.667 ± 0.931. The “myocardial pathologic score of the section shown in FIG. 20” value (shortened to “myocardial pathologic score”) ([2]; 20 μg/kg testing drug group) was 1, the Pathologic scoring ([2]; 40 μg/kg iv qd × 10, (II)) was 0.583 ± 0.204 and the Pathologic scoring ([2]; 40 μg/kg iv qd × 10 d, (I)) was 0.33 ± 0.41. For the same molecule, the “myocardial pathologic score” value ([2]; 40 μg/kg testing drug group) was 1, the “myocardial pathologic score” value ([2]; 130 μg/kg testing drug group (so in the source)) was 1.5 and the survival rate ([3]; Adriamycin 3.3 mg/kg weekly × 4, 10 μg/kg iv qd 10 days) was 60%. For the same molecule, the survival rate ([3]; Adriamycin 3.3 mg/kg weekly × 4, 20 μg/kg iv qd 10 days) was 90%, the survival rate ([3]; Adriamycin 3.3 mg/kg weekly × 4, 40 μg/kg iv qd 10 days) was 85% and the “Pathologic score Mean ± SD” value ([4]; 7.5 μg/kg iv qd × 5, (I)) was 1.52 ± 0.74. For the same molecule, the “Pathologic score Mean ± SD” value ([4]; 7.5 μg/kg iv qd × 5, (II)) was 1.34 ± 1.16, the “Pathologic score Mean ± SD” value ([4]; 15 μg/kg iv qd × 5, (I)) was 0.73±0.58 and the “Pathologic score Mean ± SD” value ([4]; 15 μg/kg iv qd × 5, (I), listed as rhNRG-1β) was 0.73 ± 0.58. For the same molecule, the “Pathologic score Mean ± SD” value ([4]; 15 μg/kg iv qd × 5, (II)) was 0.57 ± 0.58, the “Pathologic score Mean ± SD” value ([4]; 30 μg/kg iv qd × 3, (I)) was 0.33±0.155 and the “Pathologic score Mean ± SD” value ([4]; 30 μg/kg iv qd × 3, (I), listed as rhNRG-1β) was 0.33 ± 0.155. For the same molecule, the “Pathologic score Mean ± SD” value ([4]; 30 μg/kg iv qd × 3, (II)) was 0.55 ± 0.476, the “Pathologic score Mean ± SD” value ([4]; 30 μg/kg iv qd × 5, (I)) was 0.56±0.47 and the “Pathologic score Mean ± SD” value ([4]; 30 μg/kg iv qd × 5, (I), listed as rhNRG-1β) was 0.56 ± 0.47. For the same molecule, the “Pathologic score Mean ± SD” value ([4]; 30 μg/kg iv qd × 5, (II)) was 0.23 ± 0.26, the “Pathologic score Mean ± SD” value ([4]; 30 μg/kg iv qd × 5, Example 5 (I)) was 0.11±0.14 and the “Pathologic score Mean ± SD” value ([4]; 30 μg/kg iv qd × 5, Example 5 (I), listed as rhNRG-1β) was 0.11 ± 0.140. For the same molecule, the “Pathologic score Mean ± SD” value ([4]; 30 μg/kg iv qd × 5, Example 5 (II)) was 0.17 ± 0.157, the “Pathologic score Mean ± SD” value ([4]; 30 μg/kg iv qd × 7, (I)) was 0.13±0.13 and the “Pathologic score Mean ± SD” value ([4]; 30 μg/kg iv qd × 7, (I), listed as rhNRG-1β) was 0.13 ± 0.132. For the same molecule, the “Pathologic score Mean ± SD” value ([4]; 30 μg/kg iv qd × 7, (II)) was 0.19 ± 0.168, the cTnT ([5]; 10 μg/kg iv qd × 10 d) was 0.074 ± 0.024 ng/mL and the cTnT ([5]; 10 μg/kg iv qd × 10 d, listed as rhNRG-1β) was 0.074 ± 0.024 ng/mL. The cTnT ([5]; 20 μg/kg iv qd × 10 d) was 0.031 ± 0.006 ng/mL, the cTnT ([5]; 20 μg/kg iv qd × 10 d, listed as rhNRG-1β) was 0.031 ± 0.006 ng/mL and the cTnT ([5]; 40 μg/kg iv qd × 10 d) was 0.025 ± 0.011 ng/mL. It also gave a cTnT ([5]; 40 μg/kg iv qd × 10 d, listed as rhNRG-1β) of 0.025 ± 0.011 ng/mL.
